# Assay results reported in doi:10.1101/2025.01.24.634724, “Receptor Activity-Modifying Protein 3 enhances GLP-1-mediated Insulin Secretion” (bioRxiv, 2025).
# Key:
# Nluc-GLP-1R (human) = Nluc-GLP-1R (human) (UniProt P43220)
# [1] = target: Nluc-GLP-1R co-expressed with FLAG-RAMP3 (UniProt P43220)
# Chain of Nluc-GLP-1R co-expressed with FLAG-RAMP3 (P43220 24-463, chain 1 of 2): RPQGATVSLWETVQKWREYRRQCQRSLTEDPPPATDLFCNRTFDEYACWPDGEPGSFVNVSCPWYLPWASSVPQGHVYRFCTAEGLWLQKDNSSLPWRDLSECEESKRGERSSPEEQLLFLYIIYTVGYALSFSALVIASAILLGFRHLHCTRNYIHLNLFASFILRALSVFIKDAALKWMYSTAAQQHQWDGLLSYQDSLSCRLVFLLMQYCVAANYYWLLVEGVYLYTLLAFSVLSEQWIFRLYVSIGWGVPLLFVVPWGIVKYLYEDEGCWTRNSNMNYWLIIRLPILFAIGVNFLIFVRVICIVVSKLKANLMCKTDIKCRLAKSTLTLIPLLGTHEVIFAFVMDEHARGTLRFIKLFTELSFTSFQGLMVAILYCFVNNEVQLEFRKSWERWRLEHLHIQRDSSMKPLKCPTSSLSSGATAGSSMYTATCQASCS
# Chain of Nluc-GLP-1R co-expressed with FLAG-RAMP3 (O60896 24-148, chain 2 of 2, further chain): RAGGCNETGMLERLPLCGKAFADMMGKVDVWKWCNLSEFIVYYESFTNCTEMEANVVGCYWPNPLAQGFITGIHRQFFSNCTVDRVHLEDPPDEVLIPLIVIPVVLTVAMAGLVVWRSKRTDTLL
# Chain of Nluc-GLP-1R (human) (P43220 24-463): as the sequence (P43220 24-463, chain 1 of 2) above
Substance,"(Ca2+)i mobilisation in HEK293T cells, maximal response, receptor without RAMP3 (percent of 10 μM ionomycin) (Nluc-GLP-1R (human))","(Ca2+)i mobilisation in HEK293T cells, pEC50, receptor without RAMP3 (Nluc-GLP-1R (human)) [pEC50]","(Ca2+)i mobilisation in HEK293T cells, pEC50, RAMP3 over-expressed (2:1) [1] [pEC50]"
exendin-4 (from UniProt P26349 48-87) (peptide),43.6,,
GLP-1 (7–36amide) (peptide),,7.2,8.1
